The assay has as its target SARS-CoV-2 Nucleocapsid (N) protein, wildtype, SUMO1 modified (SARS-CoV-2 | not stated). Kind of assay: FRET or BRET. Background: Bioluminescence resonance energy transfer reports proximity on the nanometre scale.

The Kd is a measure of binding affinity in units of concentration. High values mean weaker binding, low ones tighter binding. “SARS-CoV-2 Nucleocapsid (N) protein, wildtype, SUMO1 modified” returned a Kd of 460 nM.
